Source: patent publication US20220177587A1, “METHODS AND USES OF VARIANT CD80 FUSION PROTEINS AND RELATED CONSTRUCTS” (Alpine Immune Sciences, Inc., priority 2018, published 2022)
Residue numbers refer to the chain shown, from its start. Names may count otherwise.

B1: E35D/M47V/N48K/V68M/K89N: variant CD80 IgV-Fc, IgV SEQ ID NO:465 (protein)
chain: VIHVTKEVKEVATLSCGHNVSVEELAQTRIYWQKDKKMVLTMMSGDVKIWPEYKNRTIFDITNNLSIMILALRPSDEGTYECVVLKYENDAFKREHLAEVTLSVKAD
B2: E35G/K54E/A71D/L72P: variant CD80 IgV-Fc, IgV SEQ ID NO:219 (protein)
chain: B1 chain with D35G, V47M, K48N, K54E, M68V, A71D, L72P, N89K
B3: E35D/M47L: variant CD80 IgV-Fc, IgV SEQ ID NO:208 (protein)
chain: B1 chain with V47L, K48N, M68V, N89K
B4: E35D/M47I/L70M: variant CD80 IgV-Fc, IgV SEQ ID NO:199 (SEQ ID NO:125 in b995) (protein)
chain: B1 chain with V47I, K48N, M68V, L70M, N89K

Experiments:
huCTLA4 [1] = biological target: T1, huCTLA4 (Homo sapiens, UniProt P16410); assay: Antagonism of CD80/CTLA-4 binding on CHO cells expressing CTLA-4; design: Full-length mammalian surface expression constructs for each of human CTLA-4, PD-L1, and CD28; settings: 25 nM fluorochrome-conjugated wild-type CD80-Fc; FIG. 21
Procedure: After washing, cells were incubated with 25 nM fluorochrome-conjugated wild-type CD80-Fc. Bound fluorescent competitor protein was detected and measured by flow cytometry.
(§1) The multivalent variant CD80 IgSF domain fusion proteins were assessed to test for blocking of the PD-L1/PD-1 and CTLA-4/CD80 interaction performed substantially as described in Example 15. CHO/OKT3/PD-L1 and CHO/CTLA-4 cells were counted and plated at 100,000 cells/well and then incubated with fluorescently conjugated PD-1-Fc and CD80-Fc. Exemplary multivalent variant CD80 IgSF domain fusion proteins were incubated with the cells for 30 minutes. […] Cells were washed and incubated with 100 nM fluorescently conjugated PD-1-Fc and CD80-Fc competitor for 30 minutes. Cells were then washed and samples were acquired on a flow cytometer and MFIs of the fluorescently labeled molecules were determined.

huCTLA4 [2] = biological target: T1, huCTLA4; assay: Flow binding to CHO cells stably expressing CTLA4; design: huCTLA4 and huPD-L1, full-length mammalian surface expression constructs were generated; expressed in transfected cells; host or cells: CHO cells, lentiviral transduction, sorted to >98% purity; settings: Table E19; CHO cells stably expressing CTLA4; 33.3 nM
In short: (§2)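 Cells were first blocked in PBS with 1% BSA and 0.1% sodium azide. Primary staining with fusion protein ran 45 min on ice, and secondary staining with PE anti-human Fc at 1:150 ran 30 min on ice.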

CD28 [3] = biological target: T2, CD28 (Homo sapiens, UniProt P10747); assay: Jurkat/IL2 + K562/OKT3/PD-L1 reporter assay; assay type: cell-based; design: host or cells: Jurkat cells expressing an IL-2-luciferase reporter
PD-L1/PD-1 interaction = biological target: T3, PD-L1/PD-1 interaction (Homo sapiens, UniProt Q9NZQ7); assay: PD-L1/PD-1 binding and blocking on CHO/PD-L1 cells; settings: fluorescently conjugated PD-1-Fc; FIG. 7
T3 construct: expressed in transfected cells
Procedure: Binding of selected immunomodulatory fusion proteins to cells expressing PD-L1 was assessed to test for blocking of the PD-L1/PD-1 interaction. […] Samples were acquired on a flow cytometer and MFIs of the fluorescently labeled PD-1 were determined by Flowjo software analysis.
as §1

CD28 [4] = biological target: T2, CD28; assay: Flow binding to Jurkat/IL2 reporter cells (CD28); design: host or cells: Jurkat cells expressing an IL-2-luciferase reporter; settings: Table E19; Jurkats (CD28); 33.3 nM
In short: as §2

[5] = system: primary human pan T cells; assay: Cytokine production following PD-L1-dependent costimulation; assay type: cell-based; settings: mitomycin-c treated K562/OKT3/PDL1 aAPC; FIG. 6
CD28 [6] = biological target: T2, CD28; assay: Jurkat/IL2 + CHO/OKT3 +/- PD-L1 reporter assay: PD-L1-dependent CD28 costimulation; assay type: cell-based; design: host or cells: Jurkat cells expressing an IL-2-luciferase reporter; settings: luciferase signal; for PD-L1-Dependent CD28 Costimulation, +PD-L1, 0.6 nM / PD-L1-Dependent CD28 Costimulation, +PD-L1, 50 nM: CHO/OKT3/PD-L1 aAPC; for PD-L1-Dependent CD28 Costimulation, No PD-L1, 50 nM / PD-L1-Dependent CD28 Costimulation, No PD-L1, […]: CHO/OKT3 aAPC
In short: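 Readout is relative luminescence from lysed cocultures: test protein given 15 min at room temperature to Jurkat cells before adding CHO artificial APCs displaying OKT3 alone or OKT3 plus PD-L1, then 5 h at 37 °C, 5% CO2.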

Pan T cells = assay: Primary T cell stimulation assay with K562/OKT3 +/- PD-L1 (IL-2, IFN-gamma, proliferation); assay type: cell-based, human; settings: 1, 10, 100 nM; 72 hr
Procedure: IFN-gamma, IL-2 and proliferation were determined after 72 hr. incubation.

CD28 [7] = biological target: T2, CD28; assay: CD28 costimulation via Fc receptor or PD-L1 dependent cross-linking (Jurkat/IL2 + K562/OKT3 +/- PD-L1); assay type: cell-based; design: host or cells: Jurkat cells expressing an IL-2-luciferase reporter; settings: K562/0KT3 aAPC, luciferase signal
Procedure: In a further experiment, CD28 costimulation was assessed for variant CD80-IgV-Fc fusion proteins, where the Fc was an IgG1 Fc (e.g. SEQ ID NO:1517) capable of mediating effector activity via binding to Fc receptors (FcR). The experiment was carried out as described in part A above, except CD32-expressing K562 cells stably transduced with OKT3 (K562/OKT3) or OKT3 and PD-L1 (K562/OKT3/PD-L1) were used instead of the CHO/OKT3 and CHO/OKT3/PD-L1 cells, and the results are depicted in Table E9.

MC38 hPD-L1 tumor cells = assay: MC38 hPD-L1 tumor model in C57BL/6 mice; assay type: in vivo, mouse
Procedure: Mouse MC38 tumor cells were stably transfected with human PD-L1 (MC38 hPD-L1) and implanted subcutaneously into C57BU6 mice. […] Tumor volume was tracked over time.
70 female C57CL/6 mice, containing similar tumor volumes of approximately 50-51 mm^3, following implantation of MC38 hPD-L1 tumor cells, were staged and divided into 5 treatment groups containing 14 mice each. […] Tumor volumes were measured on days 7, 10, and 12. On day 13, 5 animals were sacrificed for analysis as described in the sections below. Tumor measurements resumed for the remaining 9 mice for each group on days 17, 20 and 27. On days 26, 28, and 31, the animals in Group 1 (Fc isotype control) received an intratumoral injection of 100 μg E35D/M47L CD80-IgV-Fc.
95 female C57BU6 mice were implanted with MC38 hPD-L1 tumor cells. The tumors were staged on Day 7, and 77 mice with similar tumor volumes of approximately 60 mm^3 were divided into 7 treatment groups containing 11 mice each.
On day 49, tumor-free mice, from Groups 3, 4, 6, and 7, and 2 naïve C57CL/6 mice were re-challenged with an additional injection of hPD-L1 MC38 cells. Tumor volumes were measured on days 56, 59, and 63. The results are depicted in FIG. 13. […] At day 59, 8/8 mice from Group 3, 1/2 mice from Group 4, 1/1 mouse from Group 6, and 2/2 mice from Group 7 were tumor-free, and by day 63, all mice in Group 3, Group 4, Group 6, and Group 7 were tumor-free.
75 animals were staged into 3 treatment groups 7 days after implantation with hPD-L1 MC38 tumor cells. […] Tumor volumes were measured every 3-4 days, from Day 11 until Day 35. 3 days after the 1st dose, 2nd dose and 3rd dose, 4 mice from each group were sacrificed for tumor and LN analyses, leaving 13 mice for tumor volume measurements throughout the study period.

huPD-L1 = huPD-L1 (Homo sapiens, UniProt Q9NZQ7); assay: Flow binding to CHO cells stably expressing PD-L1; design: huCTLA4 and huPD-L1, full-length mammalian surface expression constructs were generated; expressed in transfected cells; host or cells: CHO cells, lentiviral transduction, sorted to >98% purity; settings: Table E19; CHO cells stably expressing PD-L1; 33.3 nM
In short: as §2

CD28 [8] = biological target: T2, CD28; assay: Jurkat/IL2 reporter assay: blockade of CD28 costimulation (plate-bound anti-CD3/CD86-Fc); assay type: cell-based; design: host or cells: Jurkat cells expressing an IL-2-luciferase reporter; settings: Table E5; protein diluted to 40 nM before mixing with cells; 5 hours
In short: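 Readout is Bio-Glo luminescence after a 5 h, 37 °C stimulation of IL-2-luciferase Jurkat reporter cells on wells precoated (overnight, 4 °C) with anti-CD3 antibody and CD86-Fc. Cells were first mixed with CD80-Fc test proteins for 15 min at room temperature.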

[9] = system: huPD-L1 transduced MC38 tumor cells; assay: In vitro cytotoxicity to huPD-L1 transduced MC38 tumor cells; assay type: cell-based, mouse; settings: 100 nM or 10 nM; 72 hours; human pan T cells 1:5; FIG. 17
Procedure: This Example describes the assessment of in vitro cytotoxicity of huPD-L1 transduced MC38 tumor cells. MC38 tumor cells, non-transduced or transduced with huPD-L1, were treated with Mitomycin-C and plated with human pan T cells labelled with CFSE at a 1:5 ratio. […] As a control, an exemplary anti-PD-1 antibody nivolumab or an Fc (inert) only control also were assessed. Cells were then harvested and stained with 7-AAD viability dye. After acquiring samples on a flow cytometer, the percentage of dead cells was calculated using Flowjo analysis by gating on 7-AAD+ cells in the CFSE− gate.

[10] = re-challenged on day 49 with hPD-L1 MC38 cells

T1 sequence (P16410 36-223): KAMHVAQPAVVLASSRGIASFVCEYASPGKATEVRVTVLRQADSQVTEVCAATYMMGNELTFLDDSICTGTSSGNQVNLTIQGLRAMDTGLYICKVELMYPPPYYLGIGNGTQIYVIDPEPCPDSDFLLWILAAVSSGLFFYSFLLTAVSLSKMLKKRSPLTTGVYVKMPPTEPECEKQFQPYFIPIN
T3 sequence (Q9NZQ7 19-290): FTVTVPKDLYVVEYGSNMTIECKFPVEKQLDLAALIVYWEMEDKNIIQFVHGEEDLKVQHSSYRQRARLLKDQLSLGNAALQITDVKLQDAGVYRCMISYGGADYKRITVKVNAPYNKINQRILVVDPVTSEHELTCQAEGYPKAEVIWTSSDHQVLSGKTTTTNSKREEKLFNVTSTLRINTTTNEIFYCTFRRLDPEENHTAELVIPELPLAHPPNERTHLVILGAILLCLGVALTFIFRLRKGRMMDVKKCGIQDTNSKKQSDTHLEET
Chain of huPD-L1 (Q9NZQ7 19-290): as above

| Molecule | CTLA4 MFI at 33.3 nM (huCTLA4 [2]) | CD28 MFI at 33.3 nM (CD28 [4]) | PD-L1-Dependent CD28 Costimulation, +PD-L1, 0.6 nM (CD28 [6]) | PD-L1-Dependent CD28 Costimulation, +PD-L1, 50 nM (CD28 [6]) | PD-L1-Dependent CD28 Costimulation, No PD-L1, 50 nM (CD28 [6]) | PD-L1-Dependent CD28 Costimulation, No PD-L1, […] (CD28 [6]) | CD28 costimulation, FcR Dependent Cross-Linking (No PD-L1), 0.6 nM (CD28 [7]) | CD28 costimulation, FcR Dependent Cross-Linking (No PD-L1), 50 nM (CD28 [7]) | Average Relative Luminescence Units (CD28 [8]) | other results |
| --- | --- | --- | --- | --- | --- | --- | --- | --- | --- | --- |
| B1 | 20884 | 1348 | – | – | – | – | – | – | – | antagonism of binding of CD80 to CTLA-4 (huCTLA4 [1]): antagonized the binding of CD80 to CTLA-4; PD-L1 dependent CD28 costimulation (luciferase activity) (CD28 [3]; IgV-Fc (inert), various concentrations, FIG. 5): induced PD-L1 dependent CD28 costimulation in a dose-dependent manner; Relative Luciferase Units (RLU), CD80-Fe Cone 50 nM (CD28 [3]; Table E8, K562/OKT3/PD-L1 aAPC, 50 nM): 1439 RLU; blocking of binding of PD-1 to PD-L1 (PD-L1/PD-1 interaction): antagonize or block binding of PD-1 to PD-L1; IL-2 secretion in culture supernatants [5]: resulted in IL-2 secretion in culture supernatants |
| B2 | – | – | 529 | 476 | 440 | 417 | 1337 | 1510 | – | CD28 costimulation and IL-2 production (Pan T cells): did not generate significant costimulation and IL-2 production |
| B3 | 48010 | 411 | – | – | – | – | 2119 | 8685 | 1110 Relative Luminescence Units | mice with no detectable tumors (tumor-free) upon completion of the study (MC38 hPD-L1 tumor cells; 100 μg on days 7, 9 and 11, 11 mice per group): 1 mice; tumor growth / tumor volume (MC38 hPD-L1 tumor cells; i.p. dosing, compared to Fc control or anti-PD-L1): dose-dependent decrease in tumor volumes; tumor-free mice after re-challenge, day 59 (MC38 hPD-L1 tumor cells; [10]): 1/1; tumor-free mice after re-challenge, day 63 (MC38 hPD-L1 tumor cells; [10]): tumor-free; PD-L1 MFI at 33.3 nM (huPD-L1): 7529 |
| B4 | – | – | 1004 | 2629 | 600 | 549 | 1609 | 5780 | 1077 Relative Luminescence Units | cytotoxicity (percentage of dead 7-AAD+ tumor cells) [9]: increased cytotoxicity against huPD-L1 transduced MC38 tumor cells, but not non-transduced MC38 parental cells |
